Test results as given in the supplement of paper PMC7877785.
± gives the uncertainty stated by the source.

Experiment: self-splicing fitness, log relative to wild type (ln ratio); higher = more splicing; Tetrahymena group I intron in knt gene, E. coli kanamycin selection, DiMSum; sequences stand for … in CUCUCU…GGAGGGAAAAGUUAUCAGGCAUGCACCUGGUAGCUAGUCUUUAAACCAAUAGAUUGCAUCGGUUUAAAAGGCAAGACCGUCAAAUUGCGGGAAAGGGGUCAACAGCCGUUCAGUACCAAGUCUCAGGGGAAACUUUGAGAUGGCCUUGCAAAGGGUAUGGUAAUAAGCUGACGGACAUGGUCCUAACCACGCAGCCAAGUCCUAAGUCAACAGAUCUUCUGUUGAUAUGGAUGCAGUUCACAGACUAAAUGUCGGUCGGGGAAGAUGUAUUCUUCUCAUAAGAUAUAGUCGGACCUCUCCUUAAUGGGAGCUAGCGGAUGAAGUGAUGCAACACUGGAGCCGCUGGGAACUAAUUUGUAUGCGAAAGUAUAUUGAUUAGUUUUGGAGUACUCGUGGUCG
Outline: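 Library with all eight P1ex-region intron nucleotides randomised, intron inside the knt kanamycin-resistance gene on pET-22b(+), in E. coli BL21(DE3). Cells grew overnight at 37°C or 30°C on LB agar with or without 25 μg/mL kanamycin (plus 100 μg/mL carbenicillin, 50 μM IPTG, 0.2% rhamnose), in six replicate transformations. Pooled colonies were amplicon-sequenced on Illumina HiSeq 2500. DiMSum fitness is the error-weighted combination of wild-type-normalised replicate fold changes, kanamycin versus none.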

AGAUAGCAAUAUUACGGCUA
self-splicing fitness (ln) (30 °C): 0.0313 ± 0.1 | self-splicing fitness (ln) (37 °C): 0.162 ± 0.098

AGAUAGCAAUAUUACGGGAG
self-splicing fitness (ln) (30 °C): -2.43 ± 0.26 | self-splicing fitness (ln) (37 °C): -1.95 ± 0.23

AGAUAGCAAUAUUACGGGUU
self-splicing fitness (ln) (30 °C): -2.78 ± 0.2 | self-splicing fitness (ln) (37 °C): -2.29 ± 0.25

AGAUAGCAAUAUUACGGUUC
self-splicing fitness (ln) (30 °C): -1.77 ± 0.12 | self-splicing fitness (ln) (37 °C): -0.791 ± 0.19

AGAUAGCAAUAUUACGUAAG
self-splicing fitness (ln) (30 °C): -1.31 ± 0.065 | self-splicing fitness (ln) (37 °C): -1.44 ± 0.088

AGAUAGCAAUAUUACGUAAU
self-splicing fitness (ln) (30 °C): -1.52 ± 0.11 | self-splicing fitness (ln) (37 °C): -0.657 ± 0.12

AGAUAGCAAUAUUACGUAUG
self-splicing fitness (ln) (30 °C): -2.57 ± 0.15 | self-splicing fitness (ln) (37 °C): -2.3 ± 0.17

AGAUAGCAAUAUUACGUCAU
self-splicing fitness (ln) (30 °C): -1.89 ± 0.097 | self-splicing fitness (ln) (37 °C): -0.716 ± 0.096

AGAUAGCAAUAUUACGUCUC
self-splicing fitness (ln) (30 °C): -3.01 ± 0.21 | self-splicing fitness (ln) (37 °C): -3.05 ± 0.4

AGAUAGCAAUAUUACGUGAU
self-splicing fitness (ln) (30 °C): -1.92 ± 0.11 | self-splicing fitness (ln) (37 °C): -0.886 ± 0.11

AGAUAGCAAUAUUACGUUAC
self-splicing fitness (ln) (30 °C): -2.05 ± 0.48

AGAUAGCAAUAUUACGUUAU
self-splicing fitness (ln) (30 °C): -3.23 ± 0.17 | self-splicing fitness (ln) (37 °C): -3.55 ± 0.25

AGCAAGCAAUAUUACGAAAG
self-splicing fitness (ln) (30 °C): -2.4 ± 0.23 | self-splicing fitness (ln) (37 °C): -1.36 ± 0.22

AGCAAGCAAUAUUACGAGGC
self-splicing fitness (ln) (30 °C): -4.52 ± 0.34 | self-splicing fitness (ln) (37 °C): -2.51 ± 0.23

AGCAAGCAAUAUUACGAUAC
self-splicing fitness (ln) (37 °C): -1.72 ± 0.46

AGCAAGCAAUAUUACGCAUU
self-splicing fitness (ln) (30 °C): -2.57 ± 0.17 | self-splicing fitness (ln) (37 °C): -1.45 ± 0.19

AGCAAGCAAUAUUACGGACC
self-splicing fitness (ln) (30 °C): 0.36 ± 0.2 | self-splicing fitness (ln) (37 °C): -0.517 ± 0.22

AGCAAGCAAUAUUACGGCAA
self-splicing fitness (ln) (30 °C): -0.272 ± 0.069 | self-splicing fitness (ln) (37 °C): -0.342 ± 0.086

AGCAAGCAAUAUUACGGCAG
self-splicing fitness (ln) (30 °C): -0.65 ± 0.065 | self-splicing fitness (ln) (37 °C): -0.357 ± 0.082

AGCAAGCAAUAUUACGUACC
self-splicing fitness (ln) (30 °C): -0.796 ± 0.078 | self-splicing fitness (ln) (37 °C): 0.398 ± 0.097

AGCAAGCAAUAUUACGUAGA
self-splicing fitness (ln) (30 °C): -2.83 ± 0.15 | self-splicing fitness (ln) (37 °C): -2.44 ± 0.2

AGCAAGCAAUAUUACGUGCA
self-splicing fitness (ln) (30 °C): -0.675 ± 0.058 | self-splicing fitness (ln) (37 °C): 0.058 ± 0.077

AGCAAGCAAUAUUACGUGUC
self-splicing fitness (ln) (30 °C): -3.85 ± 0.23 | self-splicing fitness (ln) (37 °C): -2.44 ± 0.17

AGCAAGCAAUAUUACGUGUG
self-splicing fitness (ln) (30 °C): -2.9 ± 0.1 | self-splicing fitness (ln) (37 °C): -1.17 ± 0.081

AGCAAGCAAUAUUACGUUUG
self-splicing fitness (ln) (30 °C): -4.51 ± 0.22 | self-splicing fitness (ln) (37 °C): -2.76 ± 0.18

AGCCAGCAAUAUUACGAACG
self-splicing fitness (ln) (30 °C): -3.24 ± 0.27 | self-splicing fitness (ln) (37 °C): -2.97 ± 0.37

AGCCAGCAAUAUUACGAAGC
self-splicing fitness (ln) (30 °C): -1.65 ± 0.22 | self-splicing fitness (ln) (37 °C): -1.96 ± 0.37

AGCCAGCAAUAUUACGACUU
self-splicing fitness (ln) (30 °C): -1.6 ± 0.1 | self-splicing fitness (ln) (37 °C): -0.895 ± 0.12

AGCCAGCAAUAUUACGAGAU
self-splicing fitness (ln) (30 °C): -3.39 ± 0.18 | self-splicing fitness (ln) (37 °C): -2.28 ± 0.2

AGCCAGCAAUAUUACGAUCA
self-splicing fitness (ln) (37 °C): -2.69 ± 0.32

AGCCAGCAAUAUUACGCAAG
self-splicing fitness (ln) (30 °C): -3.8 ± 0.34 | self-splicing fitness (ln) (37 °C): -2.98 ± 0.4

AGCCAGCAAUAUUACGCAUA
self-splicing fitness (ln) (30 °C): -2.21 ± 0.15 | self-splicing fitness (ln) (37 °C): -1.34 ± 0.16

AGCCAGCAAUAUUACGCCCC
self-splicing fitness (ln) (30 °C): -1.54 ± 0.24 | self-splicing fitness (ln) (37 °C): 0.277 ± 0.32

AGCCAGCAAUAUUACGCUAA
self-splicing fitness (ln) (30 °C): -2.53 ± 0.18 | self-splicing fitness (ln) (37 °C): -0.465 ± 0.12

AGCCAGCAAUAUUACGCUAU
self-splicing fitness (ln) (30 °C): -1.55 ± 0.12 | self-splicing fitness (ln) (37 °C): -0.833 ± 0.13

AGCCAGCAAUAUUACGCUCA
self-splicing fitness (ln) (30 °C): -1.83 ± 0.1 | self-splicing fitness (ln) (37 °C): -1.64 ± 0.13

AGCCAGCAAUAUUACGGCAG
self-splicing fitness (ln) (30 °C): -1.01 ± 0.065 | self-splicing fitness (ln) (37 °C): -1.18 ± 0.092

AGCCAGCAAUAUUACGGGAA
self-splicing fitness (ln) (30 °C): -2.59 ± 0.19 | self-splicing fitness (ln) (37 °C): -0.667 ± 0.12

AGCCAGCAAUAUUACGGGUA
self-splicing fitness (ln) (30 °C): -1.59 ± 0.094 | self-splicing fitness (ln) (37 °C): -1.08 ± 0.092

AGCCAGCAAUAUUACGGUAG
self-splicing fitness (ln) (30 °C): -2.6 ± 0.097 | self-splicing fitness (ln) (37 °C): -0.58 ± 0.085

AGCCAGCAAUAUUACGGUAU
self-splicing fitness (ln) (30 °C): -2.57 ± 0.1 | self-splicing fitness (ln) (37 °C): -1.14 ± 0.094

AGCCAGCAAUAUUACGGUCU
self-splicing fitness (ln) (30 °C): -3.08 ± 0.18 | self-splicing fitness (ln) (37 °C): -2.51 ± 0.18

AGCCAGCAAUAUUACGGUGG
self-splicing fitness (ln) (30 °C): -4.22 ± 0.19 | self-splicing fitness (ln) (37 °C): -2.17 ± 0.17

AGCCAGCAAUAUUACGUAUC
self-splicing fitness (ln) (30 °C): -2.85 ± 0.15 | self-splicing fitness (ln) (37 °C): -2.21 ± 0.23

AGCCAGCAAUAUUACGUCUC
self-splicing fitness (ln) (30 °C): -3.95 ± 0.37 | self-splicing fitness (ln) (37 °C): -2.78 ± 0.27

AGCCAGCAAUAUUACGUGGC
self-splicing fitness (ln) (30 °C): -3.74 ± 0.19 | self-splicing fitness (ln) (37 °C): -3.57 ± 0.29

AGCCAGCAAUAUUACGUUAU
self-splicing fitness (ln) (30 °C): -3.94 ± 0.19 | self-splicing fitness (ln) (37 °C): -1.75 ± 0.12

AGCCAGCAAUAUUACGUUCC
self-splicing fitness (ln) (30 °C): -2.02 ± 0.17 | self-splicing fitness (ln) (37 °C): -2.04 ± 0.28
